Measured values from the supplement of paper PMC10567573.

B1: SPATS1 (parent)
chain: YPEQSKGFHKAGSMLPPVNFSIVP
B2: ZNF263 (parent)
chain: FAHSSNLLRHQRIHTGERPYKCPE

Variants of: B1
Assay: protein stability index of a GFP-peptide fusion (GPS, HEK-293T) (PSI 1-6); higher = more stable
Conditions: c terminus: a fixed tail appended
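Further: lentivirally expressed fusions sorted by FACS into six bins by GFP to DsRed ratio, PSI derived from sequencing read proportions per bin multiplied by bin number.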

Protein stability index: each site, then its substitutions
L15: H 2.27 | I 1.84 | K 1.72 | M 1.8 | N 2.02 | P 2.42 | Q 2.47 | R 1.9 | S 2.04 | T 2.16 | V 1.85 | W 1.47 | Y 2.42
P16: A 1.95 | C 1.97 | D 1.94 | E 1.95 | F 1.98 | G 1.65 | H 1.44 | I 1.54 | K 2.01 | L 1.76 | M 1.52 | N 1.65 | Q 2.02 | R 1.99 | S 1.43 | T 1.9 | V 2.16 | W 1.96 | Y 1.78
P17: A 2.63 | C 1.41 | D 1.94 | E 1.85 | F 1.58 | G 1.83 | H 2.75 | I 1.75 | K 1.59 | L 1.62 | M 1.42 | N 1.9 | Q 1.76 | R 1.61 | S 1.94 | T 1.59 | V 2.22 | W 2.59 | Y 1.8
V18: A 2.56 | C 2.2 | D 2.26 | E 1.81 | F 1.73 | G 2.48 | H 1.95 | I 1.84 | K 2.06 | L 1.28 | M 2.02 | N 2.4 | P 2.19 | Q 2.2 | R 1.62 | S 1.96 | T 2 | W 1.76 | Y 1.91
N19: A 2.17 | C 1.56 | D 1.97 | E 1.91 | F 2.48 | G 1.74 | H 1.91 | I 2.41 | K 1.82 | L 2.24 | M 1.75 | P 1.88 | Q 1.87 | R 1.85 | S 2.43 | T 1.75 | V 2.07 | W 2.18 | Y 2.26
F20: A 2.26 | C 2.13 | D 2.39 | E 2.13 | G 1.71 | H 2.19 | I 1.73 | K 2.19 | L 1.97 | M 1.97 | N 2.22 | P 2.66 | Q 2.47 | R 2.23 | S 2.14 | T 2.24 | V 2.88 | W 1.57 | Y 2.03
S21: A 1.8 | C 1.79 | D 1.87 | E 1.94 | F 1.6 | G 1.81 | H 1.49 | I 2.13 | K 2.15 | L 2.08 | M 2.06 | N 2.4 | P 1.96 | Q 1.88 | R 1.8 | T 2.52 | V 2.24 | W 2.43 | Y 2.6
I22: A 2.22 | C 1.76 | D 2.47 | E 2.33 | F 1.97 | G 2.52 | H 1.75 | K 1.65 | L 2.34 | M 2.04 | N 2.31 | P 2.01 | Q 2.26 | R 2.52 | S 2.48 | T 2.53 | V 1.82 | W 1.24 | Y 1.75
V23: A 2.57 | C 1.8 | D 1.88 | E 2.42 | F 1.59 | G 1.98 | H 1.43 | I 2.47 | K 2.1 | L 1.94 | M 1.93 | N 2.35 | Q 2.26 | R 1.9 | S 1.97 | T 1.74 | W 1.87 | Y 1.75
P24: A 1.66 | C 1.65 | D 2.43 | E 2.74 | F 1.83 | G 2.37 | H 1.53 | I 3.47 | K 2.08 | L 3.85 | M 2.5 | N 1.84 | Q 1.75 | R 1.82 | S 1.94 | T 3.33 | V 1.46 | W 3.28 | Y 2.08

Variants of: B2
Assay: as above
Conditions: c terminus: a fixed tail appended

Protein stability index, by site and new letter:
F1: A 3.8 | C 2.36 | D 3.9 | E 3.92 | G 4.33 | H 4.22 | I 3.77 | K 3.54 | L 2.67 | M 3.9 | N 3.9 | P 3.95 | Q 4.13 | R 3.46 | S 3.34 | T 3.67 | V 3.01 | W 3.29 | Y 2.51
A2: C 2.62 | D 3.41 | E 3.69 | F 2.17 | G 3.17 | H 1.82 | I 1.89 | K 3.08 | L 2.57 | M 2.83 | N 3.34 | P 2.67 | Q 2.73 | R 2.82 | S 3.19 | T 2.43 | V 3.61 | W 2.18 | Y 2.55
H3: A 2.15 | C 2.07 | D 1.94 | E 1.98 | F 1.89 | G 2.12 | I 2.34 | K 1.86 | L 2.61 | M 2.41 | N 2.48 | P 2.5 | Q 2.03 | R 2.04 | S 2.22 | T 2.06 | V 1.86 | W 1.25 | Y 1.96
S4: A 2.15 | C 2.11 | D 2.94 | E 3.05 | F 2.55 | G 2.45 | H 1.91 | I 2.09 | K 2.28 | L 2.48 | M 1.86 | N 2.7 | P 2.62 | Q 2.06 | R 2.07 | T 2.13 | V 2.24 | W 2.62 | Y 2.45
S5: A 2.04 | C 2.02 | D 2.87 | E 2.75 | F 1.94 | G 1.74 | H 1.81 | I 2.31 | K 1.91 | L 1.96 | M 2.28 | N 2.3 | P 2.25 | Q 2.15 | R 2.44 | T 2.7 | V 2.12 | W 2.24 | Y 2.13
N6: A 1.77 | C 1.4 | D 2.41 | E 2.62 | F 1.73 | G 2.21 | H 2 | I 1.56 | K 2.17 | L 1.58 | M 2.15 | P 1.98 | Q 2.49 | R 1.99 | S 2.27 | T 2.3 | V 1.91 | W 3.04 | Y 1.63
L7: A 2.83 | C 2.08 | D 2.75 | E 3.14 | F 1.84 | G 2.43 | H 2.94 | I 2.2 | K 2.54 | M 2.39 | N 2.93 | P 2.02 | Q 3.21 | R 2.58 | S 2.52 | T 2.45 | V 2.68 | W 2.48 | Y 1.6
L8: A 2.37 | C 2.13 | D 3.05 | E 3.3 | F 1.8 | G 2.35 | H 2.01 | I 2.71 | K 2.46 | M 2.68 | N 2.8 | P 2.78 | Q 2.97 | R 2.53 | S 3.14 | T 3.04 | V 2.55 | W 2.64
